Here are results for two substances from patent US20050130175A1.

Test [1] addresses in vitro translated S38A wee1 (UniProt P47817). Kind of test: glutathione precipitation from Xenopus interphase egg extract with nuclei and MG132, wee1 Western blot. On the technique in general: A western blot detects proteins with antibodies after separation by electrophoresis.
Test [2] deals with in vitro translated wild-type wee1 (UniProt P47817). The test is described as above.

Regarding “GST-Tome-1 (as used in the wee1 binding assay in Xenopus egg extracts) (from UniProt P08515 1-218)”, in test [1], the % of input wee1 precipitated was 2.5 % of input. The % of input wee1 pulled down in test [2] is 25 % of input.
Take “GST-VCA (GST fusion with the C terminus of the actin nucleating scaffolding protein N-WASP) (from UniProt P08515 1-218)”: the % of input wee1 precipitated in test [1] and in test [2] was 8 % of input in each case.
